Source: paper PMC6283856 (2018)

B1: ubiquitin-specific peptidase 17 (USP17), wild type [not stated] / TNFR-associated factor 2 (TRAF2) [not stated] (parent complex)
chain 1: MEDDSLYLGGEWQFNHFSKLTSSRPDAAFAEIQRTSLPEKSPLSSEARVDLCDDLAPVARQLAPRKKLPLSSRRPAAVGAGLQNMGNTCYENASLQCLTYTPPLANYMLSREHSQTCQRPKCCMLCTMQAHITWALHSPGHVIQPSQALAAGFHRGKQEDAHEFLMFTVDAMKKACLPGHKQVDHHSKDTTLIHQIFGGCWRSQIKCLHCHGISDTFDPYLDIALDIQAAQSVKQALEQLVKPEELNGENAYHCGLCLQRAPASKTLTLHTSAKVLILVLKRFSDVTGNKLAKNVQYPECLDMQPYMSQQNTGPLVYVLYAVLVHAGWSCHDGHYFSYVKAQEGQWYKMDDAKVTACSITSVLSQQAYVLFYIQKSEWERHSESVSRGREPRALGAEDTDRRATQGELKRDHPCLQAPELDERLVERATQESTLDHWKFPQEQNKTKPEFNVRKVEGTLPPNVLVIHQSKYKCGMKNHHPEQQSSLLNLSSTTRTDQESVNTGTLASLQGRTRRSKGKNKHSKRALLVCQ
chain 2: MAAASVTPPGSLELLQPGFSKTLLGTKLEAKYLCSACRNVLRRPFQAQCGHRYCSFCLASILSSGPQNCAACVHEGIYEEGISILESSSAFPDNAARREVESLPAVCPSDGCTWKGTLKEYESCHEGRCPLMLTECPACKGLVRLGEKERHLEHECPERSLSCRHCRAPCCGADVKAHHEVCPKFPLTCDGCGKKKIPREKFQDHVKTCGKCRVPCRFHAIGCLETVEGEKQQEHEVQWLREHLAMLLSSVLEAKPLLGDQSHAGSELLQRCESLEKKTATFENIVCVLNREVERVAMTAEACSRQHRLDQDKIEALSSKVQQLERSIGLKDLAMADLEQKVLEMEASTYDGVFIWKISDFARKRQEAVAGRIPAIFSPAFYTSRYGYKMCLRIYLNGDGTGRGTHLSLFFVVMKGPNDALLRWPFNQKVTLMLLDQNNREHVIDAFRPDVTSSSFQRPVNDMNIASGCPLFCPVSKMEAKNSYVRDDAIFIKAIVDLTGL

Variants of: B1
Assay: co-immunoprecipitation (IP: Myc, IB: Flag) with band quantification; coexpressed in HEK293 cells; parent: 100; read off a plot

Row | Variant | percent of parent
1 | chain 1 Q430A | ~33%
2 | chain 1 S484L | ~40%
3 | chain 1 P480L | ~68%
